Reference: patent US20210371499A1

Assays:
DMF5 TCR [1] = target: DMF5 TCR
DMF5 TCR [2] = test: flow cytometry of Jurkat/MA cells transduced with DMF5, stained with the pooled barcoded tetramer library

Q: With “CMVpp65/HLA-A*02:01 tetramer (from UniProt P61769 21-119) (peptide-MHC)” as the substance, how does the percent tetramer-positive cells (DMF5 TCR [1]) read?
A: The percent tetramer-positive cells was 0.1%.

Q: How did the percent DMF5 positive cells (DMF5 TCR [2]) turn out when “MART-1/HLA-A*02:01 tetramer (from UniProt P61769 21-119) (peptide-MHC)” was run?
A: The percent DMF5 positive cells was 33%.
